This passage reports Kd results from publication PMC6062497.

Where “and” joins values, the source holds several entries; their conditions need not be identical. Equal values may be shown once.

In general, Kd refers to the equilibrium constant for the complex coming apart.

The assay deals with TRAIL receptors on SK-Mel-3 cells. Conditions: ligand.

“GpL-FLAG-TNC-TRAIL (from UniProt P10039)”: the dissociation constant (Kd) was 4.82 nM and 2.32 nM.
